Earlier results as cited in patent US6610516B1, “Cell culture process” (Genentech, Inc., priority 1999, dated 2003).
Changes are numbered by the printed parent chain. Names and notes keep the numbering of the source.

B1: N117Q: t-PA variant wherein asparagine at position 117 of wild-type human t-PA was substituted with glutamine (protein, UniProt P00750 36-562, looked up, variant N117Q)
Tissue-type plasminogen …: SYQVICRDEKTQMIYQQHQSWLRPVLRSNRVEYCWCNSGRAQCHSVPVKSCSEPRCFNGGTCQQALYFSDFVCQCPEGFAGKCCEIDTRATCYEDQGISYRGTWSTAESGAECTNWQSSALAQKPYSGRRPDAIRLGLGNHNYCRNPDRDSKPWCYVFKAGKYSSEFCSTPACSEGNSDCYFGNGSAYRGTHSLTESGASCLPWNSMILIGKVYTAQNPSAQALGLGKHNYCRNPDGDAKPWCHVLKNRRLTWEYCDVPSCSTCGLRQYSQPQFRIKGGLFADIASHPWQAAIFAKHRRSPGERFLCGGILISSCWILSAAHCFQERFPPHHLTVILGRTYRVVPGEEEQKFEVEKYIVHKEFDDDTYDNDIALLQLKSDSSRCAQESSVVRTVCLPPADLQLPDWTECELSGYGKHEALSPFYSERLKEAHVRLYPSSRCTSQHLLNRTVTDNMLCAGDTRSGGPQANLHDACQGDSGGPLVCLNDGRMTLVGIISWGLGCGQKDVPGVYTKVTNYLDWIRDNMRP
B2: TNK t-PA: t-PA variant: glycosylation site added at position 103, removed at 117, positions 296-299 replaced by AAAA (protein, UniProt P00750 36-562, looked up, variant T103N N117Q K296A H297A R298A R299A)
Tissue-type plasminogen …: B1 Tissue-type plasminogen … with T103N, K296A, H297A, R298A, R299A

Columns and labels:
fibrin = details: Keyt et al. 1994

Molecule | Clearance rate versus wild-type human t-PA (Hotchkiss et al., Lau et al.) | Fibrin specificity versus wild-type human t-PA (fibrin) | Circulatory half-life versus wild-type human t-PA (Keyt et al. 1994)
B1 | about two-fold slower clearance rate |  | 
B2 |  | markedly better fibrin specificity | increased circulatory half-life
